{"source": "paper PMC5738261", "about": "(Journal of molecular biology, 2017)", "key": {"dynamic light scattering [1]": {"target": "the molecule itself", "experiment": "dynamic light scattering"}, "dynamic light scattering [2]": {"target": "the molecule itself", "experiment": "dynamic light scattering", "remark": "listed apart in the source"}, "[3]": {"target": "T1, A3F-CD2 E251A K352A/K355A/K358A (human, UniProt Q8IUX4 190-373, E251A;K352A;K355A;K358A)", "experiment": "EMSA"}, "[4]": {"target": "T1, A3F-CD2 E251A K352A/K355A/K358A", "experiment": "EMSA", "remark": "listed apart in the source"}, "A3F-CD2 WT": {"target": "A3F-CD2 WT (human, UniProt Q8IUX4 190-373)", "experiment": "X-ray crystallography"}}, "note": "Like-named read-outs stand apart in the source and are kept apart here."}
{"binder": "wild-type hA3F-CD2 (APOBEC3F C-terminal catalytic domain, residues 190-373) (domain or fragment, human, UniProt Q8IUX4 190-373, looked up) NPMEAMYPHIFYFHFKNLRKAYGRNESWLCFTMEVVKHHSPVSWKRGVFRNQVDPETHCHAERCFLSWFCDDILSPNTNYEVTWYTSWSPCPECAGEVAEFLARHSNVNLTIFTARLYYFWDTDYQEGLRSLSQEGASVEIMGYKDFKYCWENFVYNDDEPFKPWKGLKYNFLFLDSKLQEILE", "values": [{"measurement": "stoichiometry N", "setting": "dynamic light scattering [1]", "value": 4}, {"measurement": "stoichiometry N", "setting": "dynamic light scattering [2]", "value": 2}]}
{"binder": "TTTTTTTTTT (ssDNA)", "note": "[10 nt poly-dT (FAM)]", "values": [{"measurement": "binding result", "setting": "[3]", "value": "no binding"}]}
{"binder": "AUUAUUAUUAUUUAUCCCUAUUUAUAUUUAUUGUUAUUGUUAUUGUUAUA (ssRNA)", "note": "[50 nt RNA]", "values": [{"measurement": "binding result", "setting": "[4]", "value": "no binding"}]}
{"binder": "TTTTTTTTTT (ssDNA)", "note": "[10 nt poly-dT (crystal, DLS)]", "values": [{"measurement": "binding result", "setting": "A3F-CD2 WT", "value": "binds"}]}
